Results: US20240294593A1 (Genentech, published 2024)

B1: H1.190_L1.1 (XENP32806) (antibody, human IgG1, kappa, V domains shown)
VH: EVQLVESGGGLVQPGGSLRLSCAASGFTFSSFGMHWVRQAPGKGLEWVSYISSGSSIIYYADSVKGRFTISRDNAKNSLYLQMNSLRAEDTAVYYCARGGALVFSPDYWGQGTLVTVSS
VL: DIVMTQSPDSLAVSLGERATINCKSSQSLLHSGNQKNYLTWYQQKPGQPPKLLIYWASTRESGVPDRFTGSGSGTDFTLTISSLQAEDVAVYYCQNDYSYPFTFGSGTKLEIKR
notes: VH substitution R109A/W112F (Xencor #); R97A/W100F (Kabat); also called mAb C[PD1]_H1.190_L1.1_IgG1_PVA_/S267K
B2: H1.189_L1.1 (XENP32805) (antibody, human IgG1, kappa, V domains shown)
VH: EVQLVESGGGLVQPGGSLRLSCAASGFTFSSFGMHWVRQAPGKGLEWVSYISSGSSIIYYADSVKGRFTISRDNAKNSLYLQMNSLRAEDTAVYYCARGGRRVFTPDYWGQGTLVTVSS
VL: DIVMTQSPDSLAVSLGERATINCKSSQSLLHSGNQKNYLTWYQQKPGQPPKLLIYWASTRESGVPDRFTGSGSGTDFTLTISSLQAEDVAVYYCQNDYSYPFTFGSGTKLEIKR
notes: VH substitution L110R/W112F/S113T (Xencor #); L98R/W100F/S100aT (Kabat); also called mAb C[PD1]_H1.189_L1.1_IgG1_PVA_/S267K
B3: H1.191_L1.1 (XENP32807) (antibody, human IgG1, kappa, V domains shown)
VH: EVQLVESGGGLVQPGGSLRLSCAASGFTFSSFGMHWVRQAPGKGLEWVSYISSGSSIIYYADSVKGRFTISRDNAKNSLYLQMNSLRAEDTAVYYCARGGRLTFSPDYWGQGTLVTVSS
VL: DIVMTQSPDSLAVSLGERATINCKSSQSLLHSGNQKNYLTWYQQKPGQPPKLLIYWASTRESGVPDRFTGSGSGTDFTLTISSLQAEDVAVYYCQNDYSYPFTFGSGTKLEIKR
notes: VH substitution V111T/W112F (Xencor #); V99T/W100F (Kabat); also called mAb C[PD1]_H1.191_L1.1_IgG1_PVA_/S267K
B4: H1_L1.13 (antibody, V domains shown)
VH: EVQLVESGGGLVQPGGSLRLSCAASGFTFSSFGMHWVRQAPGKGLEWVSYISSGSSIIYYADSVKGRFTISRDNAKNSLYLQMNSLRAEDTAVYYCARGGRLVWSPDYWGQGTLVTVSS
VL: DIVMTQSPDSLAVSLGERATINCKSSQSLLNHGNQKNYLTWYQQKPGQPPKLLIYWASTRESGVPDRFTGSGSGTDFTLTISSLQAEDVAVYYCQNDYSYPFTFGSGTKLEIKR
notes: also called VL-S32H; Kabat 27e
B5: H1_L1.12 (antibody, V domains shown)
VH: EVQLVESGGGLVQPGGSLRLSCAASGFTFSSFGMHWVRQAPGKGLEWVSYISSGSSIIYYADSVKGRFTISRDNAKNSLYLQMNSLRAEDTAVYYCARGGRLVWSPDYWGQGTLVTVSS
VL: DIVMTQSPDSLAVSLGERATINCKSSQSLLNVGNQKNYLTWYQQKPGQPPKLLIYWASTRESGVPDRFTGSGSGTDFTLTISSLQAEDVAVYYCQNDYSYPFTFGSGTKLEIKR
notes: also called VL-S32V; Kabat 27e
B6: H1_L1.14 (antibody, V domains shown)
VH: EVQLVESGGGLVQPGGSLRLSCAASGFTFSSFGMHWVRQAPGKGLEWVSYISSGSSIIYYADSVKGRFTISRDNAKNSLYLQMNSLRAEDTAVYYCARGGRLVWSPDYWGQGTLVTVSS
VL: DIVMTQSPDSLAVSLGERATINCKSSQSLLNKGNQKNYLTWYQQKPGQPPKLLIYWASTRESGVPDRFTGSGSGTDFTLTISSLQAEDVAVYYCQNDYSYPFTFGSGTKLEIKR
notes: also called VL-S32K; Kabat 27e
B7: H1.79_L1 (antibody, V domains shown)
VH: EVQLVESGGGLVQPGGSLRLSCAASGFTFSSFGMHWVRQAPGKGLEWVSYISSGSYIIYYADSVKGRFTISRDNAKNSLYLQMNSLRAEDTAVYYCARGGRLVWSPDYWGQGTLVTVSS
VL: DIVMTQSPDSLAVSLGERATINCKSSQSLLNSGNQKNYLTWYQQKPGQPPKLLIYWASTRESGVPDRFTGSGSGTDFTLTISSLQAEDVAVYYCQNDYSYPFTFGSGTKLEIKR
notes: also called VH-S60Y; Kabat 55
B8: H1.85_L1 (antibody, V domains shown)
VH: EVQLVESGGGLVQPGGSLRLSCAASGFTFSSFGMHWVRQAPGKGLEWVSYISSGSSAIYYADSVKGRFTISRDNAKNSLYLQMNSLRAEDTAVYYCARGGRLVWSPDYWGQGTLVTVSS
VL: DIVMTQSPDSLAVSLGERATINCKSSQSLLNSGNQKNYLTWYQQKPGQPPKLLIYWASTRESGVPDRFTGSGSGTDFTLTISSLQAEDVAVYYCQNDYSYPFTFGSGTKLEIKR
notes: also called VH-I61A; Kabat 56
B9: H1.89_L1 (antibody, V domains shown)
VH: EVQLVESGGGLVQPGGSLRLSCAASGFTFSSFGMHWVRQAPGKGLEWVSYISSGSSIVYYADSVKGRFTISRDNAKNSLYLQMNSLRAEDTAVYYCARGGRLVWSPDYWGQGTLVTVSS
VL: DIVMTQSPDSLAVSLGERATINCKSSQSLLNSGNQKNYLTWYQQKPGQPPKLLIYWASTRESGVPDRFTGSGSGTDFTLTISSLQAEDVAVYYCQNDYSYPFTFGSGTKLEIKR
notes: also called VH-I62V; Kabat 57

What follows are binders tested against T1, human PD-1-His (human, UniProt Q15116 25-167, limits assumed) (assay: Octet (BLI), AHC capture of the bivalent mAb, PD-1 in solution).
T1 construct: Antigen of the Octet assays; not shown: His tag
T1 sequence (Q15116 25-167 limits assumed): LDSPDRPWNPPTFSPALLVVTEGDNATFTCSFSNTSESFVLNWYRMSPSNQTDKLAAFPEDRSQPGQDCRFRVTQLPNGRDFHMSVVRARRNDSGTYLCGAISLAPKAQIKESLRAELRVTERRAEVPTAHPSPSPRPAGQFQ
For B1, the koff was 0.00271 s⁻¹ and the kon was 191000 M⁻¹ s⁻¹.
For B2, the koff was 0.00199 s⁻¹ and the kon was 83800 M⁻¹ s⁻¹.
B3 gave a koff of 0.00382 s⁻¹ and a kon of 106000 M⁻¹ s⁻¹.

What follows are binders tested against T1, human PD-1-His (assay: Octet).
B4 showed a Kd of 103 nM, a koff of 0.0106 s⁻¹ and a kon of 102000 M⁻¹ s⁻¹.
In the case of B5, the Kd is reported as 111 nM, the koff is reported as 0.0115 s⁻¹ and the kon is reported as 104000 M⁻¹ s⁻¹.
With B6 the Kd was 170 nM, the koff was 0.0141 s⁻¹ and the kon was 83200 M⁻¹ s⁻¹.

The binders below were run against T1, human PD-1-His (assay: Octet (BLI), AHC biosensors capture the bivalent mAb, dipped into multiple concentrations of PD-1; KDapp per legend).
B1 showed a Kd of 14.2 nM.
In the case of B2, the Kd is reported as 23.7 nM.
Binder B3 has a Kd of 36 nM.

Target: T1, human PD-1-His
Assay: Octet
Remark: another data set of the same source
With B7 the Kd was 43.4 nM, the koff was 0.00686 s⁻¹ and the kon was 158000 M⁻¹ s⁻¹.
B8 showed a Kd of 132 nM, a koff of 0.0618 s⁻¹ and a kon of 467000 M⁻¹ s⁻¹.
B9 gave a Kd of 43.2 nM, a koff of 0.00669 s⁻¹ and a kon of 155000 M⁻¹ s⁻¹.
